Data published in US20210147564A1 (TENEOBIO, published 2021).

T1: human BCMA on NCI-H929 cells (human, UniProt Q02223 1-184)
T1 construct: whole, on cells; also called H929 human cells that express BCMA; BCMA-expressing cell line (H929)
T1 sequence (looked up): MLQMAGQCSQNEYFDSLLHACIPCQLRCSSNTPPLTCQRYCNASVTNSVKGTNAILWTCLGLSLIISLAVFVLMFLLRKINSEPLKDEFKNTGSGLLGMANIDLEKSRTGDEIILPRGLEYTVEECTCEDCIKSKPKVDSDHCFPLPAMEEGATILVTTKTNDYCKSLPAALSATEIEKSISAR

T2: human BCMA ECD protein (Abcam ab50089) (human, UniProt Q02223 1-54)
T2 construct: extracellular domain; Bought protein; also called human BCMA protein; recombinant BCMA protein
T2 sequence (looked up): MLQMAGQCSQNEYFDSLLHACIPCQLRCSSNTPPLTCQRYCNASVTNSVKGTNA


Key:
[1] = target: T1, human BCMA on NCI-H929 cells; experiment: flow cytometry on H929 cells
Experimental: Supernatants of the 4 test anti-BCMA antibodies were also tested by flow cytometry for binding to H929 cells. The samples were measured by flow cytometry using a Guava easyCyte 8HT instrument from EMD Millipore and analyzed using guavaSoft. Bound antibodies were detected with goat anti-human IgG F(ab)2 conjugated to PE (Southern Biotech 2042-09). All antibodies were diluted in PBS with 1% BSA. Positive staining was determined by comparison to staining with a human IgG1 isotype control.

[2] = target: T2, human BCMA ECD protein (Abcam ab50089); experiment: ELISA on human BCMA ECD; Octet off-rate
Experimental: Supernatants of 4 antibodies were tested for binding in a standard ELISA assay to human and cynomolgus BCMA. Binding to recombinant BCMA protein was determined by ELISA using human BCMA ECD obtained from Abcam (ab50089). The BCMA ECD protein was used at a concentration of […] to capture UniAbs at 50 ng/mL. Binding of UniAbs was detected with a goat anti-human IgG HRP conjugated antibody (ThermoFisher 31413). All antibodies were diluted in 1×TBS with 0.05% Tween-20 and 1% dry milk powder.

| binding result [1] | binding result [2] | Binder |
| --- | --- | --- |
| binds | binds | heavy chain-only anti-BCMA antibody (UniAb) with the heavy chain variable region of SEQ ID NO: 12 (antibody, V domains shown, Heavy chain-only antibody expressed in HEK cells (CH1 deleted, no light chain), tested as supernatant; also called anti-BCMA UniAb; HCAb) VH: QVQLVESGGGLVQPGGSLRLSCAASGFTFTNHAMSWVRQAPGKGLELVSSISGNGRTTYYADSVKGRFTISRDISKNTLDLQMNSLRAEDTAVYYCAKDGGETLVDSRGQGTLVTVSS |
| binds | binds | heavy chain-only anti-BCMA antibody (UniAb) with the heavy chain variable region of SEQ ID NO: 13 (antibody, V domains shown, Heavy chain-only antibody expressed in HEK cells (CH1 deleted, no light chain), tested as supernatant; also called anti-BCMA UniAb; HCAb) VH: QVQLVESGGGLVQPGGSLRLSCAASGFTFSSHAMTWVRQAPGKGLEWVAAISGSGDFTHYADSVKGRFTISRDNSKNTVSLQMNNLRAEDTAVYYCAKDEDGGSLLGYRGQGTLVTVSS |
| binds | binds | heavy chain-only anti-BCMA antibody (UniAb) with the heavy chain variable region of SEQ ID NO: 14 (antibody, V domains shown, Heavy chain-only antibody expressed in HEK cells (CH1 deleted, no light chain), tested as supernatant; also called anti-BCMA UniAb; HCAb) VH: EVQLLESGGGLIQPGGSLRLSCAASGFTFSSHAMTWVRQAPGKGLEWVSAISGSGDYTHYADSVKGRFTISRDNSKNTVYLQMNSLRAEDSAVYYCAKDEDGGSLLGHRGQGTLVTVSS |
| binds | binds | heavy chain-only anti-BCMA antibody (UniAb) with the heavy chain variable region of SEQ ID NO: 15 (antibody, V domains shown, Heavy chain-only antibody expressed in HEK cells (CH1 deleted, no light chain), tested as supernatant; also called anti-BCMA UniAb; HCAb) VH: EVQLLESGGGLVQPGGSLRLSCAASGFTFSSYAMSWVRQAPGKGLEWVSSISGSGDYIYYADSVKGRFTISRDISKNTLYLQMNSLRAEDTAVYYCAKEGTGANSSLADYRGQGTLVTVSS |
